Data set [1] has as its target T1, MYB108A (VviMYB108A) (UniProt C3W4Q3 1-306).
T1 sequence: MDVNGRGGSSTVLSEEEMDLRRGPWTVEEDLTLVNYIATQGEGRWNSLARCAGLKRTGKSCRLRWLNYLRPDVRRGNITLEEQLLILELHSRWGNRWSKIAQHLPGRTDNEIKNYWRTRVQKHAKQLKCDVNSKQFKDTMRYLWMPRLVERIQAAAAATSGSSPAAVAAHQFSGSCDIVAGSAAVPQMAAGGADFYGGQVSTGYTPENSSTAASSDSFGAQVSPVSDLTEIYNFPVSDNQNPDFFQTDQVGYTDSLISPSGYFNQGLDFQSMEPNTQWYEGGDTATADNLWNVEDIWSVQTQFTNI
The data set can be described thus: competition; increasing unlabeled competitor vs biotin MBS probe (EMSA); EMSA per Thermo Fisher EMSA Kit manual; buffer, salt, pH and temperature not stated. As to conditions: protein: recombinant; tags: His. A general note: A gel shift assay detects complexes by their altered migration in electrophoresis.

For data set [2], the target named is T1, MYB108A (VviMYB108A). Nature of the data set: competition; unlabeled mutant competitor vs biotin MBS probe (EMSA); EMSA per Thermo Fisher EMSA Kit manual; buffer, salt, pH and temperature not stated. As to conditions: protein: recombinant; tags: His.
The target of data set [3] is T1, MYB108A (VviMYB108A). The data set can be described thus: EMSA; EMSA per Thermo Fisher EMSA Kit manual; buffer, salt, pH and temperature not stated. Conditions: protein: recombinant; tags: His; label: biotin.

B1: unlabeled MBS competitor (dsDNA)
DNA 1: CATGTCCCTGTGAACCTAACGTAAGGCA
DNA 2: TGCCTTACGTTAGGTTCACAGGGACATG
On to B1, for which, in the data set with MYB108A (VviMYB108A) [1], the binding result is “binds”.

B2: mutant MBS competitor (mMBS) (dsDNA)
DNA 1: CATGTCCCTGTGTACATATCGTAAGGCA
DNA 2: TGCCTTACGATATGTACACAGGGACATG
Take B2: the binding result in the data set with MYB108A (VviMYB108A) [2] is “no binding”.

B3: ACS1 promoter MBS probe (dsDNA)
DNA 1: CATGTCCCTGTGAACCTAACGTAAGGCA
DNA 2: TGCCTTACGTTAGGTTCACAGGGACATG
For B3, the binding result with MYB108A (VviMYB108A) [3] is “binds”.

For the origin of these results see paper PMC6804660, “Melatonin enhances salt tolerance by promoting MYB108A-mediated ethylene biosynthesis in grapevines”.
